Data as given in PMC3887218.

Key:
[1] = fluorescence lifetime imaging (TCSPC); in vitro, pH 4.7, no heparin, 24 h; K18*: 1 μM, 10% labelled, cell culture medium (3824 ± 22 ps soluble); hTau40*: 10 μM, 1% labelled, BES buffer (3765 ± 53 ps soluble); conditions: other: fluorescence lifetime imaging (TCSPC)
[2] = fluorescence lifetime imaging (TCSPC); in vitro, 4:1 Tau:heparin (Mr 3000), 24 h, 37 °C; K18*: 1 μM, 10% labelled with Alexa Fluor 488, in cell culture medium (3664 ± 25 ps before); hTau40*: 20 μM, 1% labelled, in BES buffer pH 7.4 (3657 ± 18 ps before); a drop of the lifetime reports …; conditions: other: fluorescence lifetime imaging (TCSPC)
[3] = molecular target: K18* (four-repeat construct K18 of human Tau with Cys-291 and Cys-322 replaced by alanine and Ile-260 replaced by cysteine) (human); test: SDS-PAGE and Western blot of sequential detergent extracts; SH-SY5Y cells incubated 8 h with 1 μM K18*, trypsin-washed, lysed; Triton and sarkosyl fractions; NuPAGE 4-12% BisTris gel, anti-human Tau antibody A0024

Row | stoichiometry N [3] | Substance | fluorescence lifetime of the Alexa Fluor 488 label, aggregated at pH 4.7 [1] [ps] | fluorescence lifetime of the Alexa Fluor 488 label, aggregated with heparin [2] [ps when aggregated]
1 |  | K18* (four-repeat construct K18 of human Tau with Cys-291 and Cys-322 replaced by alanine and Ile-260 replaced by cysteine) | 3268 ± 31 | 3262 ± 71
2 | 2 | K18* (four-repeat construct K18 of human Tau with Cys-291 and Cys-322 replaced by alanine and Ile-260 replaced by cysteine) (domain or fragment) |  | 
